{
  "source": "the DeepSol protein solubility set",
  "data": [
    {"assay": "soluble on expression in E. coli; label from the status in PepcDB or PDB records", "values": [
      {"sequence": "MGSDKIHHHHHHSDDKDSYPVPSDIENLKATPAPGQITLSWTNPADENLYYVQIEYTIGATGKSYRKQVSQYANELVIDNLLQKYGEINFTVQAFNRGNTAGTIHQITAQAEKASPTFGTPVKIDLDYKKIWTNAPFPTRPIKDLVDGNIATFFHSWWSSLVEMPHYLVVDLGEEVSAIKFRSTNTNRANDSSWKTINLYTSDSYNPAEWFDGVEKIDGNTVDISQAGTHKETTLTGLPDGVSEVYNSEVIPLSKPSRYLWFEVTETTKGTPYFALGELEIYQCSMVVLE", "soluble on expression in E. coli": "not soluble"},
      {"sequence": "MGSDKIHHHHHHSDSLQSAYDTDATYRDKAGKKESGYTATFTETCNSENDVQIIVDYTVEPNNKSDVEIFQDRMDIIKDNTNASDIYADGGYYGENVINKANSKGIEIQLHYTDMTGKTAPEGQLPAHHFVFNKDMEMVQCPGGQIPSSSKYNSKTKITTSHFPKEVCNNCPHRCNCPLKEQKRDMVVRISKKSILASQVRETVNDPHIKHENISKRAAIEGTNSAIKGCQGAKRLRVRGKIKCTLQIGFKVIGHNFKQIFRALTKQIKKPKIKTKGLLCPNPN", "soluble on expression in E. coli": "not soluble"},
      {"sequence": "MGSDKIHHHHHHSEENESSGTIEMNQLPGTAQSFLSNYFPGQTPEKIERTNTDQENARLLYRVVFPNEVKVEFSENGGWKRLMIPDQKLPGSLDSLWGKIIEYVQQLFPDDPFIGIENACYGDCVLLSSGKKIAFYYDGTCIGYEMDIKDESGVPQPVRDFVATYFPDGVFQAVVEHIPNENVTAGYSFWLENGFKCVLNDRGQWTEVNGGTELLPVSILETLPAKVTEQLYRDYPAAQVTYIRLEGTCYTIQVSKTVYVTIDPESKPIVVPVMQAQALAEEYFGKLRSISISHPLHTDVLNFKVCLPNGFNMLVNEDASEWLNIDGNGFAFPEKLVASLPEKITEYISAHSNSEITRVDRSVAASFLVELTNGDGLMFDSQGGFLGKEKIELSISEKTYRYMRHQFPDDLNMYFSSYSIEGWIYKLGDGSQVRFDRDGNFVEMIAAAK", "soluble on expression in E. coli": "not soluble"},
      {"sequence": "MGSDKIHHHHHHSLQAQSTVSHNLANVDTVGFKAALANTEAFQIRGKGYPSRIDALHVDQGFDRSQGHQKVTGNPLDVSLQQDRWLAVQSPDGSEAYTRNGELALTANGQLVTANGHAVLDEGGNPMTIPPHQAMEIGSDGSISIIPQGEGPQTMAIVGKMKVVDAPADRLMRRPDGLMRNTSTDPAQAFAVATGKTVNSGMLEGSNVDAAGALVEMIQLQRQFEMQVKIIKNGDDNAQSANSLLRVSG", "soluble on expression in E. coli": "not soluble"},
      {"sequence": "MGSDKIHHHHHHSNPTRSIPATDAVSSATAGKKMGLQTYSLGQELLQDMPNGLNRLAKAGYTDLEIFGYREDTGKFGDYNPKNTTFIASKDYKKMVDDAGLRISSSHLTPSLREYTKENMPKFDEFWKKATDIHAELGVSCMVQPSLPRIENEDDAKVVSEIFNRAGEITKKAGILWGYHNHSNEFKRVLKAGEKPEQNPNPWAPPKGTYIEELFLKNTDPDKVMFELDVYWAVMGQQDPVEWMENYPNRFKLLHIKDRWIIGDSGMMNFPNIFKKAYEIGILGYYVELEGDKKGRTQFEGVEKSAAYLQAAPFVK", "soluble on expression in E. coli": "not soluble"},
      {"sequence": "MGSDKIHHHHHHTEYPLPAAQSRLIGENQYYTVPEGKHTLEDIAAKYQLGLSNLLEANPGVDPFLPKPGSQLLIPLQLILPNAPREGIVINVAEMRLYYYPKGKKTVEVLPIGIGQIGKDTPENWVTSVQRKRANPTWTPTPRIRKEYAAKGEILPAVWPAGPDNPMGLYALYIGNLYAIHGTNASFGIGLRVSQGCVRLRHEDIEHLFKNVPVGTRVQFVNQPIKATEEPDGKRYLAVHQPLSRTVAEFESNEPVAISLPRDIAKFIAKADTNSSVIKKLLDERTGVPMRINQ", "soluble on expression in E. coli": "not soluble"},
      {"sequence": "MGSDKIHHHHHHVALLQDELKIRKIHELLHMKLALPPYQRPYSWSVKSANTLFQDTYNAYHEGLQEYRVGSVILHKENGKYNIVDGQQRLTTISILLYCLGEKDLGLLQEKYNQLSNDVIVTNYEILSKRISELPKDEQNKYKNYLFERCSVVQIVTDSEQEAFQFFDSQNSRGKELTPHDLLKSYHLREMNDEEENQKIRIINQWENVNQDDLNDLFKIYLYPLTQWYKGKSGLGYSSSKIDVFKGIKTTNVFNYAIYHKASNLFVEQFNANGSNELLASRALNQFQLTQPLMAGKRFFYYTLHYRNLLEQVQRLVSKVHTEEQVPSRRTGDLYIKQLYECALLFFADRFGIENLSKAVMQQLYTWSYSLRLVMEAVYLQTINKYVRGEHERVNYGLGMFSEISEMKNGEELKLISLEQPKIENKNKEKYRDVYDLLCEWNRW", "soluble on expression in E. coli": "not soluble"},
      {"sequence": "MGSDKIHHHHHHVATGTGLVAIPAAEKVGSEGYVIGIDMTPGMLHQARIKIAAAKLQNIELIEADVEYFNFSESSFDVVFCCEAIVLVPDILAILKKWYRFLKPGGFVAFTCPPETAFMASLQQRICARVLGVSLPHILEPLGTPEKCRNLLNQAGFRDIEIKIEPSGRYRPLRDNRLSEIAININFKGNPLLSKLSQEQLNQLQVEYKAEIEKLATEQGIWEDTTKLFVRARK", "soluble on expression in E. coli": "not soluble"},
      {"sequence": "MGSDKIHHHHHHVAVKAYLKRELRNLQSLAPAVRTAKFSLYNFGTRSAGLFVEPEFKLLAHLRPVKLAIDIGGNWGQSVLALQRYAAPERIVTFEPNPELYRRLSARFRSDPSIQVENVGLGDAAGQFDLHIPLYRNFVYDGLASLNKDEAAQWLNPRTMARFDPSKLTIQSHTVRVVKLDDYNLVPDIIKIDVQGLEDAVARGGIKTIDRAKPAMIVEAPSASFVQMMADCGLRPYTWNGTRLVDAADGSNVMFLSDEKLRKLVKVRPKPEKPE", "soluble on expression in E. coli": "not soluble"},
      {"sequence": "MGSDKIHHHHHHVFDKNLRNSFFAEPYSSEPLAIRIREVLNGKVGFYSVGLYPASLAYNCALQNEGFNILLAPRDGRELFGAFSDIDLSEMDNGIKNKIESMAIPNEDKSGRYNTLKDLLINCELVVLSSNSKHIITDLDLAFKLRKELNRDNVLIACLVGSFCHDHNLNESFVLCEKLNKLAFFSGFHRHGALRNPLDSFTANFCHPDSMNAILGAKLLNKISPNIQVSAGIHNVEGQYIKAAKNISSIFAGFGHTFHKNNPGLLPTLLTLLLDQCLDQAAYVSMSRTDREDLYSKQPFPITELGYSVQRIEASYVKDGDFVQVRDHTFTQLKAMVADVRGSMMLPVSGNPTRNFQAGQVLAERMIEYKRCPKGVDEFIEWCERSGLKRGALEGINSLNYWPNILRKYSIPLNNSSMINLLYMCILGPVEIKNCIYNVMSSSRELANYCQESVKSSQNKKISEALDNFHLKTSVDFVTKSLIDDDKLFFENNEIGFDNPLGAQNMPIYNKVIDYMETYLLESNL", "soluble on expression in E. coli": "not soluble"},
      {"sequence": "MGSDKIHHHHHHVHPTLPHAGKNWPLSARDSPATAMAGKGINAVCLFRYQRRWHQSCFILEHAPGTRNPMTWTECLAVTAFGAFVIDRYDWTGTVKRSSNDEELLVHERLGVVSVQTSPLRRAKPALRHLRGLLIEYDCPVECIAVFAAPHCALDPTLPETTLQASELHHFMRTRFNRFRDSHRQYLDSERIAAYLQLHCTDWGENCV", "soluble on expression in E. coli": "not soluble"},
      {"sequence": "MGSDKIHHHHHHVLAPSSADTLQGLPYEVVSYRKTYESGYRSDWHSHPRHQIIYSVSGLMMTDTEGVRWAVPSGFGLIVPAGIAHTTKMIGDVSIETLYVSPSSRGRSAFESCRVVSISAMLASLISELCREELRDRNSRKAFHLRQLIFLELSDAPTSHLAVKYPVDPQLRRVCDALIADPANSWTIDQWAFEIGKSRRSFTRAFYSQTDQTFRQWTQRLRCQLALQKRAEGQSLERIARDLGYGSRYSLEAMMQKLIMVEEIN", "soluble on expression in E. coli": "not soluble"},
      {"sequence": "MGSDKIHHHHHHVNPLLDSLQPYPFEKLRALFKDVTPNAGLAHISFGIGEPKHPTPALIRDAVVASLGGLSAYPATSGSPALRESIAKWVTQRYNLPPVDPATQVLPVSGSREALFSLAQTVLDPQKNAGGEPAIVLCPNPFYQIYEGAAILAGAQPYFVNSDPARNFACDYSAVPAEIWARTQLLYVCSPGNPTGAVLTLDDWRELFALSDRYGFVIASDECYSEIYFDEAKPPLGGLEAAHKLGRGFERLVMLSSLSKRSNVPGMRSGFVAGDAAILKDFLLYRTYHGAALSTVFQNASIAAWNDEAHVRENRAKYLQKFSTVTPMLAEVLDVRLPDAAFYLWADVSRTGLTDTVFAQRLYADYNVTVLPGSFLARTAHGVNPGRNFVRMALVADVDECTQGAQRIVDFCRALAG", "soluble on expression in E. coli": "not soluble"},
      {"sequence": "MGSDKIHHHHHHVPATYPLSSCIEWQFAEAGDLAARVRAAKADGFDLVEFHLWRDKPVEAIGAALADTGVALTGVCVDPRRSIVDPAERAEMVEAVRETIAATAPLGKPPLIVASGFRVEGMSEEDHFANAVAALKQAAALAEDAGVTLLLEPLNTRLFSAMYLVSTTLGLDLVEAVGSPNLRLLYDVWHSAVMGEDIADVLAGRIGLVAHVQVADMEDRNEPGTGTVDWAHVMNTLKSLGYQGSIGMEYFPTLPMDQSLKLTRETLAL", "soluble on expression in E. coli": "not soluble"},
      {"sequence": "MGSDKIHHHHHHVVKHPAWSRFGAEVRRLRVQSGYSQAQLARAIPLSQSMLSGIELGRKGAKRDHAEALDRVLNTGGRLVRLWDSLNSIPAHPSWFQNVLALERKAVEIREYQMVVLPGLLQTEDYARSLIRPAQPWANAEKVDELVHARMSRREILTAPDRPLCWFVVDQVVIDRVTGSPTVMKEQLTYLLNLIEDHTIRFQVFPQEIPLHPGLTGPIRIMSFDDRPTMAYVEHTLGGLLTDQQQEVRYCSAIFSALQSEALSSHASADYIRRRKDQL", "soluble on expression in E. coli": "not soluble"},
      {"sequence": "MGSDKIHHHHHHWLDLAPSTQVDTETSINVLSDIEFTLNGIYSTMQSSDAYSGRLVYYGDVTGDDMQAVSSTKRTGNYYRFNFTKDNGPSSHWSYLYSIIQNCNLILMNVDKLSIDEDETEYKNDLKGQALAIRGMALFDLTRIFGYPYLKDNGASLGVPIVKELSTIDSKPARNTVAECYTEIISDLKNSTELLSGDFNKGKVNRWAAMTLLSRVYLYKGEYNEALTMAENAIKGAEKEGYALWTNEEYPTAWGNDASASNPGEILFEIVNLTTDSPGKESMGYLNSYNGYDDMCITCSFYQLLKKDPKDVRLKILSFDKKYYAYVNKYQPQQGENITDANIPLIRLSEAYLNAAEAAVQTGDNAKAVKYLNSIVQRANPENSVEGKTLTLENVLDERRKELVAEGHRMYDVIRNGMTVKRIDVKDSDINKTKHNTAYMEYDWNFHKILLPIPKKEMDANPNMKQNPGYVD", "soluble on expression in E. coli": "not soluble"},
      {"sequence": "MGSDKIHHHHHHWQVTGSKTTQDGVEAARMCGIDSYPLRLEPQLVCDTEDLDALMNVDALVITLPARRTGAGEGFYLQAVQEIVDTALAYHIPRIVFTSSTSVYGNVNGTVKENSPRLPQTASGQVLKELEDWLHNLPGTSVDILRLAGLVGPSRHPGRFFAGKSAPDGQHVVNLVHLQDVVAAIELLLQAPKGGHIYNLCAPRHPARGLFYPQMARELGLPPPVFSDSPDGGQGKIVDGNRICNELGFEYQYPDPLVMPME", "soluble on expression in E. coli": "not soluble"},
      {"sequence": "MGSGKERDTFVYLAKLSEQAERYEEMVESMKSVAKLNVDLTVEERNLLSVGYKNVIGSRRASWRIFSSIEQKEAVKGNDVNVKRIKEYMEKVELELSNICIDIMSVLDEHLIPSASEGESTVFFNKMKGDYYRYLAEFKSGNERKEAADQSLKAYEIATTAAEAKLPPTHPIRLGLALNFSVFYYEIMNAPERACHLAKQAFDEAISELDTLNEESYKDSTLIMQLLRDNLTLWTSDISEEGGDDAHKTNGSAKPGAGGDDAE", "soluble on expression in E. coli": "soluble"},
      {"sequence": "MGSHHHHHHDITSLYKKAGSENLYFQGMKFSEECRSAAAEWWEGSFVHPFVQGIGDGTLPIDRFKYYVLQDSYYLTHFAKVQSFGAAYAKDLYTTGRMASHAQGTYEAEMALHREFAELLEISEEERKAFKPSPTAYSFTSHMYRSVLSGNFAEILAALLPCYWLYYEVGEKLLHCDPGHPIYQKWIGTYGGDWFRQQVEEQINRFDELAENSTEEVRAKMKENFVISSYYEYQFWGMAYRKEGWSDSAIKEVEECGASRHNG", "soluble on expression in E. coli": "soluble"},
      {"sequence": "MGSMVCDVCHHECETAKELESHRQSCINGQCPYCMTITEATESALQAHYSICKLTGR", "soluble on expression in E. coli": "soluble"}
    ]}
  ]
}
